# Measurements from patent US20200002414A1 (published 2020).
# Numbering of substitutions follows the chain as printed. In names and notes the source's numbering stands.
# B1: HC-N052C (antibody, V domains shown)
# VH: EVQLQQSGPELVKPGASVKISCKTSGYTFTEYTMHWMKQSHRKSLEWIGGICTNNGGTGYNQKFKGKATLTVDKSSSTAYMELRSLTSEDSAVYFCARGSLYSYGNSYFDYWGQGTLVTVSS
# VL: QIVLTQSPAIMSASPGEKVTITCSATSSVSYMHWFQQKPGTSPKLWIYGTSNLASGVPARFSGSGSGTSYSLTISRMEAEDAATYYCQQRSSYPFTFGQGTKVEIK
# B2: HC-S103G (antibody, V domains shown)
# VH: B1 VH with C52N, S103G
# VL: B1 VL
# B3: HC-F029E (antibody, V domains shown)
# VH: B1 VH with F29E, C52N
# VL: B1 VL
# B4: HC-R098H (antibody, V domains shown)
# VH: B1 VH with C52N, R98H
# VL: B1 VL
# B5: HC-T053D (antibody, V domains shown)
# VH: B1 VH with C52N, T53D
# VL: B1 VL
# B6: HC-I051E (antibody, V domains shown)
# VH: B1 VH with I51E, C52N
# VL: B1 VL
# B7: HC-Y032D (antibody, V domains shown)
# VH: B1 VH with Y32D, C52N
# VL: B1 VL
# B8: HC-W112L (antibody, V domains shown)
# VH: B1 VH with C52N, W112L
# VL: B1 VL
# B9: HC-G099E (antibody, V domains shown)
# VH: B1 VH with C52N, G99E
# VL: B1 VL
# B10: HC-N052L (antibody, V domains shown)
# VH: B1 VH with C52L
# VL: B1 VL
# B11: HC-Y111T (antibody, V domains shown)
# VH: B1 VH with C52N, Y111T
# VL: B1 VL
# B12: HC-D110L (antibody, V domains shown)
# VH: B1 VH with C52N, D110L
# VL: B1 VL
# B13: HC-G105D (antibody, V domains shown)
# VH: B1 VH with C52N, G105D
# VL: B1 VL
# B14: HC-L101F (antibody, V domains shown)
# VH: B1 VH with C52N, L101F
# VL: B1 VL
# B15: HC-N106E (antibody, V domains shown)
# VH: B1 VH with C52N, N106E
# VL: B1 VL
# B16: HC-T033C (antibody, V domains shown)
# VH: B1 VH with T33C, C52N
# VL: B1 VL
# B17: HC-T053E (antibody, V domains shown)
# VH: B1 VH with C52N, T53E
# VL: B1 VL
# B18: HC-A097M (antibody, V domains shown)
# VH: B1 VH with C52N, A97M
# VL: B1 VL
# B19: HC-A097T (antibody, V domains shown)
# VH: B1 VH with C52N, A97T
# VL: B1 VL
# B20: HC-G050S (antibody, V domains shown)
# VH: B1 VH with G50S, C52N
# VL: B1 VL
# B21: HC-M034Y (antibody, V domains shown)
# VH: B1 VH with M34Y, C52N
# VL: B1 VL
# B22: HC-Y111C (antibody, V domains shown)
# VH: B1 VH with C52N, Y111C
# VL: B1 VL
# B23: HC-M034E (antibody, V domains shown)
# VH: B1 VH with M34E, C52N
# VL: B1 VL
# B24: HC-A097I (antibody, V domains shown)
# VH: B1 VH with C52N, A97I
# VL: B1 VL
# B25: HC-R098Q (antibody, V domains shown)
# VH: B1 VH with C52N, R98Q
# VL: B1 VL
# B26: HC-N052V (antibody, V domains shown)
# VH: B1 VH with C52V
# VL: B1 VL
# B27: HC-A097S (antibody, V domains shown)
# VH: B1 VH with C52N, A97S
# VL: B1 VL
# B28: HC-M034D (antibody, V domains shown)
# VH: B1 VH with M34D, C52N
# VL: B1 VL
# B29: LC-V029E (antibody, V domains shown)
# VH: B1 VH with C52N
# VL: B1 VL with V29E
# B30: LC-G049H (antibody, V domains shown)
# VH: B1 VH with C52N
# VL: B1 VL with G49H
# B31: LC-H033G (antibody, V domains shown)
# VH: B1 VH with C52N
# VL: B1 VL with H33G
# B32: LC-Y031D (antibody, V domains shown)
# VH: B1 VH with C52N
# VL: B1 VL with Y31D
# B33: LC-G049C (antibody, V domains shown)
# VH: B1 VH with C52N
# VL: B1 VL with G49C
# B34: LC-H033L (antibody, V domains shown)
# VH: B1 VH with C52N
# VL: B1 VL with H33L
# Biological target: T1, human Ror2 (human, UniProt Q01974 34-403, limits assumed)
# T1 construct: also called hROR2; receptor tyrosine kinase-like orphan receptor 2
# Assay: ELISA, human Ror2; ratio of signal at pH 6.0 to pH 7.4
# T1 sequence (Q01974 34-403 limits assumed): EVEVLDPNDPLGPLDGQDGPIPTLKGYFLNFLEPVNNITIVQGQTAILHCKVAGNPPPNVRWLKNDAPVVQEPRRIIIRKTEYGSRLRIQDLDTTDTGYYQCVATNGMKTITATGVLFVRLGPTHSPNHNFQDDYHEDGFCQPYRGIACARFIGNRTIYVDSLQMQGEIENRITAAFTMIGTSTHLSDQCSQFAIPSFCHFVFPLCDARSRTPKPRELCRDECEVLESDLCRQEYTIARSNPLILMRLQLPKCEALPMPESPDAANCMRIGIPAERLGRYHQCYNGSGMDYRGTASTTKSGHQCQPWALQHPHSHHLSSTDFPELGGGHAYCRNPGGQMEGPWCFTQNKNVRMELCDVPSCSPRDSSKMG
row,"ratio, pH 6.0/7.4",Binder
1,2.31,B1
2,1.21,B2
3,1.81,B3
4,2.63,B4
5,4.99,B5
6,10.4,B6
7,2.88,B7
8,1.75,B8
9,1.46,B9
10,2.1,B10
11,1.68,B11
12,1.68,B12
13,1.34,B13
14,1.46,B14
15,1.95,B15
16,2.7,B16
17,3.44,B17
18,1.98,B18
19,1.67,B19
20,2.6,B20
21,2.31,B21
22,1.36,B22
23,6.3,B23
24,1.89,B24
25,2.89,B25
26,2.56,B26
27,1.67,B27
28,5.9,B28

# Biological target: T1, human Ror2
# Assay: ELISA, human Ror2, pH 7.4
row,Affinity ELISA pH 7.4,Binder
1,0.129,B29
2,0.118,B30
3,0.536,B31
4,0.405,B32
5,0.133,B33
6,0.332,B34

# Biological target: T1, human Ror2
# Assay: ELISA, human Ror2, pH 7.4
# Remark: another data set of the same source
row,Affinity ELISA pH 7.4,Binder
1,0.431,B1
2,0.655,B2
3,0.742,B3
4,0.353,B4
5,0.222,B5
6,0.1,B6
7,0.51,B7
8,1.7,B8
9,0.421,B9
10,0.433,B10
11,1.4,B11
12,1.4,B12
13,0.379,B13
14,1.41,B14
15,0.115,B15
16,0.232,B16
17,0.157,B17
18,1.7,B18
19,1.69,B19
20,0.318,B20
21,0.391,B21
22,0.793,B22
23,0.185,B23
24,1.73,B24
25,0.276,B25
26,0.34,B26
27,1.69,B27
28,0.211,B28

# Biological target: T1, human Ror2
# Assay: ELISA, human Ror2, pH 6.0
row,Affinity ELISA pH 6.0,Binder
1,0.406,B29
2,1.87,B30
3,1.1,B31
4,0.911,B32
5,0.468,B33
6,0.69,B34

# Biological target: T1, human Ror2
# Assay: ELISA, human Ror2; ratio of signal at pH 6.0 to pH 7.4
# Remark: another data set of the same source
row,"ratio, pH 6.0/7.4",Binder
1,3.15,B29
2,15.9,B30
3,2.06,B31
4,2.25,B32
5,3.52,B33
6,2.08,B34

# Biological target: T1, human Ror2
# Assay: ELISA, human Ror2, pH 6.0
# Remark: another data set of the same source
row,Affinity ELISA pH 6.0,Binder
1,0.995,B1
2,0.794,B2
3,1.34,B3
4,0.928,B4
5,1.11,B5
6,1.04,B6
7,1.47,B7
8,1.75,B8
9,0.616,B9
10,0.911,B10
11,1.86,B11
12,1.68,B12
13,0.509,B13
14,1.46,B14
15,0.224,B15
16,0.626,B16
17,0.54,B17
18,1.98,B18
19,1.83,B19
20,0.823,B20
21,0.903,B21
22,1.08,B22
23,1.17,B23
24,1.89,B24
25,0.799,B25
26,0.87,B26
27,1.67,B27
28,1.24,B28
